Assay results from patent publication US20190330354A1 (MITSUBISHI TANABE PHARMA, published 2019).
Where two headings read alike, the source gives them in different places. One block for each binder: values may come before it.

Tests used:
[1] = biological target: human cMET-Fc fusion protein (human) [IgG part: P01857]; assay: SPR with hMet-Fc
Canine [2] = biological target: T1, Canine (limits assumed); assay: ELISA, antibody titrated on cMet of the named species, OD 450 nm
T1 construct: also called canine cMet; dog cMET
T1 receptor: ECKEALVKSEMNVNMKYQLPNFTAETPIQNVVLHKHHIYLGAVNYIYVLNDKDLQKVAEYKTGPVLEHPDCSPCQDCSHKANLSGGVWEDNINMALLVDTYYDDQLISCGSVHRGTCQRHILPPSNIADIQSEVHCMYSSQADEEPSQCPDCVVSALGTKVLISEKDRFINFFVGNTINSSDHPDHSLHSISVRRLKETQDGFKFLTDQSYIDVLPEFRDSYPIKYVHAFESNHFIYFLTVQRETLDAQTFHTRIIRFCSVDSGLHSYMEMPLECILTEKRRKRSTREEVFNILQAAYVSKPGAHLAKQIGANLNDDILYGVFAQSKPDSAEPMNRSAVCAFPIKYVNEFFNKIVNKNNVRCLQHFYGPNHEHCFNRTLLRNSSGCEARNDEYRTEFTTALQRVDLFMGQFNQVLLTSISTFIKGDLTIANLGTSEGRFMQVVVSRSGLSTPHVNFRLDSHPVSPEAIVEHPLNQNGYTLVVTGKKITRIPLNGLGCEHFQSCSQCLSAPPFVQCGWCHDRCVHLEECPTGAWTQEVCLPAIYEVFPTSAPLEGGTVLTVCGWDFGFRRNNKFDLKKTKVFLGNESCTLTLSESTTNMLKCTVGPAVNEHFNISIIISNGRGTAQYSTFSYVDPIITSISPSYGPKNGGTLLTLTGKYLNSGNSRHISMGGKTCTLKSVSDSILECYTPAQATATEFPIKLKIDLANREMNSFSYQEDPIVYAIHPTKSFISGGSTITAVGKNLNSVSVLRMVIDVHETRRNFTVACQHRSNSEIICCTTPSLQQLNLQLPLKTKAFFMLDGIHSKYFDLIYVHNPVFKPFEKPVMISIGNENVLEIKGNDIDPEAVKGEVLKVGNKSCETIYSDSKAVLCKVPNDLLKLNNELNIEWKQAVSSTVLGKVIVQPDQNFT

rat cMET [3] = biological target: T2, rat cMET (rat, UniProt P97523 25-935, limits assumed); assay: as above
T2 construct: ELISA antigen; also called rMET

mouse cMET [4] = biological target: T3, mouse cMET (mouse, UniProt P16056 25-931, limits assumed); assay: as above
T3 construct: ELISA antigen

Canine [5] = biological target: T1, Canine; assay: as above
mouse cMET [6] = biological target: T3, mouse cMET; assay: as above; remark: listed apart in the source
Canine [7] = biological target: T1, Canine; assay: as above
mouse cMET [8] = biological target: T3, mouse cMET; assay: as above; remark: listed apart in the source
Canine [9] = biological target: T1, Canine; assay: as above
mouse cMET [10] = biological target: T3, mouse cMET; assay: as above; remark: listed apart in the source
rat cMET [11] = biological target: T2, rat cMET; assay: ELISA on rat cMET, ratio to parental P3D12
Target sequence in this assay (P97523 25-935 limits assumed): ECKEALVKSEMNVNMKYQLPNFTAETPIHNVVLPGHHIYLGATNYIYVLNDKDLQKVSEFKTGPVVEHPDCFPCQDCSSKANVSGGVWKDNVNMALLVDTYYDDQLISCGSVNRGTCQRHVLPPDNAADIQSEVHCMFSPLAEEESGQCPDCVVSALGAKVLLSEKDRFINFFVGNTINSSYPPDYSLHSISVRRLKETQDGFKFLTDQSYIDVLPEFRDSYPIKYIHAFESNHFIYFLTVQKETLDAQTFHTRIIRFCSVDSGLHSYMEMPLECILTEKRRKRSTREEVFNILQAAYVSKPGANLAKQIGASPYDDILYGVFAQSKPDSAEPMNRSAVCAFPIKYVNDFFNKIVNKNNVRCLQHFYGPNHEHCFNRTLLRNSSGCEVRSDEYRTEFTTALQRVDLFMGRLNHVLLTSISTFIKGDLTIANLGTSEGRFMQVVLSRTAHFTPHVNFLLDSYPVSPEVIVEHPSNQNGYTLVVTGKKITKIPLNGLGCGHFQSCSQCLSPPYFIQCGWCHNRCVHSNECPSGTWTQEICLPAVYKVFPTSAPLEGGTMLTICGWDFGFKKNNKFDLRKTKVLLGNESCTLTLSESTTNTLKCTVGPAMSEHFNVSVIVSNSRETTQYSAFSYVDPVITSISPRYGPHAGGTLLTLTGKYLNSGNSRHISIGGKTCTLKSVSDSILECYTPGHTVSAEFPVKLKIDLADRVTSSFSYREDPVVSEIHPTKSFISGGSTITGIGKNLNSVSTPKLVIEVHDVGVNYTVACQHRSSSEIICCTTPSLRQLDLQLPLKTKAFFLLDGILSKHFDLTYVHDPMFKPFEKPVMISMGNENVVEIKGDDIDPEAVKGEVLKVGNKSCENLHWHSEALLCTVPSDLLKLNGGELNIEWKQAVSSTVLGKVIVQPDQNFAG

human cMET = biological target: T4, human cMET (human, UniProt P08581 25-932, limits assumed); assay: ELISA on human cMET, ratio to parental P3D12
T4 construct: also called hMET

Canine [12] = biological target: T1, Canine; assay: ELISA, antibody titrated on cMet of the named species, OD 450 nm
rat cMET [13] = biological target: T2, rat cMET; assay: as above; remark: listed apart in the source
mouse cMET [14] = biological target: T3, mouse cMET; assay: as above; remark: listed apart in the source

T4 sequence (P08581 25-932 limits assumed): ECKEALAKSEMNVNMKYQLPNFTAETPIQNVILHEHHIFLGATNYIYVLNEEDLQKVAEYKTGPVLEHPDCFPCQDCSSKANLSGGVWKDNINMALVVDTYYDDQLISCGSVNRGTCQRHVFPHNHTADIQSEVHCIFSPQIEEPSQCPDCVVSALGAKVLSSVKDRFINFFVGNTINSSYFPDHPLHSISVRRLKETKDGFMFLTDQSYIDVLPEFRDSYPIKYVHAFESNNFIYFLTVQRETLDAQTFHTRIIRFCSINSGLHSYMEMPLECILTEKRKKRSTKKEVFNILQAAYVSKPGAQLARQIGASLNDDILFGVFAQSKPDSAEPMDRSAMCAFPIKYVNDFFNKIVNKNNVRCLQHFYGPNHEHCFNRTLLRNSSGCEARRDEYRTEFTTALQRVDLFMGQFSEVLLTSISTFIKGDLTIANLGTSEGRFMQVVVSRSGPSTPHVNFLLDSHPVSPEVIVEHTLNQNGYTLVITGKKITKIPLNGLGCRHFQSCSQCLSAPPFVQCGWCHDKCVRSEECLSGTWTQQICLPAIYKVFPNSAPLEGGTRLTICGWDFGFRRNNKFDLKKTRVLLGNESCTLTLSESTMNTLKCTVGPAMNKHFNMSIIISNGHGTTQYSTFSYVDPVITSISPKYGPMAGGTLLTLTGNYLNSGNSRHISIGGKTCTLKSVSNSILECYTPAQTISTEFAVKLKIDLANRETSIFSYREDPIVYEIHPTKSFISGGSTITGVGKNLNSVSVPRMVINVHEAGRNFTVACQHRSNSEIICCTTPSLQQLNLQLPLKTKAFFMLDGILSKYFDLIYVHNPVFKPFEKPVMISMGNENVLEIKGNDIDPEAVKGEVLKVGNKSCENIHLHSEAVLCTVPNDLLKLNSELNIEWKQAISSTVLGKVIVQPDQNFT

Kd [1]: 0.7 nM
B1: ABF46 (antibody, from another filing, V domains shown)
VH: EVKLVESGGGLVQPGGSLRLSCATSGFTFTDYYMSWVRQPPGKALEWLGFIRNKANGYTTEYSASVKGRFTISRDNSQSILYLQMDTLRAEDSATYYCARDNWFAYWGQGTLVTVSA
VL: DILMTQSPSSLTVSAGEKVTMSCKSSQSLLASGNQNNYLAWHQQKPGRSPKMLIIWASTRVSGVPDRFIGSGSGTDFTLTINSVQAEDLAVYYCQQSYSAPLTFGAGTKLELKR

ELISA rMET vs parental (rat cMET [11]): 1.3
ELISA hMET vs parental (human cMET): 1.8
B6: G2akv (antibody, V domains shown)
VH: QVQLVQSGAEVKKPGASVKVSCKASGYTFTSYWMHWVKQAPGQGLDWMGYIKPSTDNTEYAQKFQGRVTLTADKSTSTAYMELSSLRSEDTAVYYCARSYGNYPLMDYWGQGTTVTVSS
VL: QIVLTQSPATMSASPGERVTLSCSASSSVTSNYLYWYQQKPGSSPRLWIYSTSNLASGVPARFSGSGSGTSYTLTISRMEPEDAASYFCHQWSSYPPTFGSGTKLEIKR
notes: As G2aka; reported insoluble in PBS; also called humanized P3D12, HC VH-abb/sdr, LC ven

ELISA rMET vs parental (rat cMET [11]): 1.9
ELISA hMET vs parental (human cMET): 1.1
B7: G2vkc (antibody, V domains shown)
VH: QVQLVQSGAEVAKPGASVKMSCKASGYTFTSYWMHWVKQAPGQGLDWIGYIKPSTDNTEYNQKFKDKATLTADKSTSTAYMQLSSLRSEDTAVYYCARSYGNYPLMDYWGQGTTVTVSS
VL: QIVLTQSPATLSLSPGERATLSCSASSSVTSNYLYWYQQKPGSSPRLLIYSTSNLASGVPARFSGSGSGTSYTLTISRLEPEDFASYFCHQWSSYPPTFGSGTKLEIKR
notes: As G2aka; also called humanized P3D12, HC VH-ven, LC cdr

ELISA rMET vs parental (rat cMET [11]): 2.7
ELISA hMET vs parental (human cMET): 0.9
B8: G2vka (antibody, V domains shown)
VH: QVQLVQSGAEVAKPGASVKMSCKASGYTFTSYWMHWVKQAPGQGLDWIGYIKPSTDNTEYNQKFKDKATLTADKSTSTAYMQLSSLRSEDTAVYYCARSYGNYPLMDYWGQGTTVTVSS
VL: QIVLTQSPATLSLSPGERATLSCRASQSVTSNYLYWYQQKPGSSPRLLIYSTSNLASGVPARFSGSGSGTDYTLTISRLEPEDFASYFCHQWSSYPPTFGSGTKLEIKR
notes: As G2aka; also called humanized P3D12, HC VH-ven, LC abb/sdr

ELISA rMET vs parental (rat cMET [11]): 1.6
ELISA hMET vs parental (human cMET): 1.8
B9: G2vkv (antibody, V domains shown)
VH: QVQLVQSGAEVAKPGASVKMSCKASGYTFTSYWMHWVKQAPGQGLDWIGYIKPSTDNTEYNQKFKDKATLTADKSTSTAYMQLSSLRSEDTAVYYCARSYGNYPLMDYWGQGTTVTVSS
VL: QIVLTQSPATMSASPGERVTLSCSASSSVTSNYLYWYQQKPGSSPRLWIYSTSNLASGVPARFSGSGSGTSYTLTISRMEPEDAASYFCHQWSSYPPTFGSGTKLEIKR
notes: As G2aka; reported insoluble in PBS; also called humanized P3D12, HC VH-ven, LC ven

binding result (Canine [12]): no binding (tested: 10 ug/mL)
binding result (rat cMET [13]): no binding (tested: 10 ug/mL)
binding result (mouse cMET [14]): no binding (tested: 10 ug/mL)
B10: F5P5B9 (antibody, V domains shown)
VH: QVQLKESGPGLVAPSQSLSITCTVSGFSLTNYGVNWVRQPPGKGLEWLGLIWGGGDTDYNSALKSRLSISKDNSKSQVFLKMETNSLQTDDTARYYCARDYYGFDYWGQGTTLTVSS
VL: DVLMTQTPLSLPVSLGDQASISCRSSQTIVHGTGNTYLEWYLQKPGQSPKLLIYKVSNRFSGVPDRFSGSGSGTDFTLKISRVEAEDLGVYYCFQGSHVPYTFGGGTKLEIKR
notes: Mouse monoclonal antibody

ELISA rMET vs parental (rat cMET [11]): 1
ELISA hMET vs parental (human cMET): 1.1
B12: G2vkf (antibody, V domains shown)
VH: QVQLVQSGAEVAKPGASVKMSCKASGYTFTSYWMHWVKQAPGQGLDWIGYIKPSTDNTEYNQKFKDKATLTADKSTSTAYMQLSSLRSEDTAVYYCARSYGNYPLMDYWGQGTTVTVSS
VL: QIVLTQSPAILSLSPGERATLSCSASSSVTSNYLYWYQQKPGSSPKLLIYSTSNLASGVPARFSGSGSGTSYTLTISSLEAEDAASYFCHQWSSYPPTFGSGTKLEIKR
notes: As G2aka; also called humanized P3D12, HC VH-ven, LC fra

Second part, the binder before the results:

B2: F6AP8E2 (antibody, V domains shown)
VH: EVQLQQSGAELVRPGALVKLSCKASGFNINDYFMHWVKQRPEQGLEWIGWIDPENGNTIYDPKFQGKASITADTSSNTAYLQLSSLTSEDTAVYYCARGGNYLRESYYYAMDYWGQGTSVTVSS
VL: DIVMTQSPKSMSMSVGERVTLSCKASENVGTYVSWYQQKPDQSPKLLIYGASNRYTGVPDRFTGSGSATDFTLTISSVQAEDLADYHCGQSYSYPLTFGAGTKLELKR
notes: Mouse monoclonal antibody
binding result (Canine [2]): no binding (tested: 10 ug/mL (axis value 1, log10))
binding result (rat cMET [3]): no binding (tested: 10 ug/mL (axis value 1, log10))
binding result (mouse cMET [4]): no binding (tested: 10 ug/mL (axis value 1, log10))

B3: F6B1P3D12 (antibody, V domains shown)
VH: QVQLQQSGAELAKPGASVKMSCRASGYTFTSYWMHWVKQRPGQGLDWIGYIKPSTDNTEYNQKFKDKATLTADKSSSTAYMQLSSLTSEDSAVYYCARSYGNYPLMDYWGQGTSVTVSS
VL: QIVLTQSPAIMSASPGEKVTLTCSASSSVTSNYLYWYQQKPGSSPKLWIYSTSNLASGVPARFSGSGSGTSYSLTISSMEAEDAASYFCHQWSSYPPTFGSGTKLEIKR
notes: Mouse monoclonal antibody from a hybridoma; also called Mouse P3D12; P3D12(mouse)
binding result (Canine [5]): no binding (tested: 10 ug/mL (axis value 1, log10))
binding result (mouse cMET [6]): no binding (tested: 10 ug/mL (axis value 1, log10))

B4: F6B1P1E2 (antibody, V domains shown)
VH: QVQLQQSGAELAKPGASVKMSCKASGYTFTSYWMHWVKQRPGQGLEWIGYINPSTDYTEYNQKFKDKATLTADKSSTTAYMQLSSLTSEDSAVYYCVRSYGNYPLMDYWGQGTSVTVSS
VL: QIVLTQSPAIMSASPGEKVTLTCSASSSVSSNYLYWYHQKPGSSPKLWIYSTSNLASGVPVRFSGSGSGTSYSLTISSMEAEDAASYFCHQWSSYPPTFGSGTKLEIKR
notes: Mouse monoclonal antibody
binding result (Canine [7]): no binding (tested: 10 ug/mL (axis value 1, log10))
binding result (mouse cMET [8]): no binding (tested: 10 ug/mL (axis value 1, log10))

B5: F6BP2D4 (antibody, V domains shown)
VH: QVQLQQSGAELAKPGASVKMSCKASGYTFTSYWMHWVKQRPGQGLEWIGYINPSTDYIEYNQKFKDKATLTAGKSSSTAYMQLSSLTSEDSAVYYCARSYGNFPLMDYWGQGTSVTVSS
VL: QIVLTQSPAIMSASPGEKVTLTCSASSSVSSNYLYWYQQKPGSSPKLWIYSTSNLASGVPVRFSGSGSGTSYSLTISSMEAEDAASYFCHQWSSYPPTFGSGTKLEIKR
notes: Mouse monoclonal antibody
binding result (Canine [9]): no binding (tested: 10 ug/mL (axis value 1, log10))
binding result (mouse cMET [10]): no binding (tested: 10 ug/mL (axis value 1, log10))

B11: G2akc (antibody, V domains shown)
VH: QVQLVQSGAEVKKPGASVKVSCKASGYTFTSYWMHWVKQAPGQGLDWMGYIKPSTDNTEYAQKFQGRVTLTADKSTSTAYMELSSLRSEDTAVYYCARSYGNYPLMDYWGQGTTVTVSS
VL: QIVLTQSPATLSLSPGERATLSCSASSSVTSNYLYWYQQKPGSSPRLLIYSTSNLASGVPARFSGSGSGTSYTLTISRLEPEDFASYFCHQWSSYPPTFGSGTKLEIKR
notes: As G2aka; also called humanized P3D12, HC VH-abb/sdr, LC cdr
ELISA rMET vs parental (rat cMET [11]): 0.7
ELISA hMET vs parental (human cMET): 1.3
